Measurements reported in patent US20030143760A1.
Blank lines part the entries; values can stand above or below the substance they belong to.

Legend:
[1] = target: PHF-tau (human) (UniProt P10636); assay: competition ELISA on PHF-tau captured by polyclonal anti-tau; biotinylated AT8, unlabeled competitor AT120 at 10 ug/ml
[2] = target: PHF-tau (human) (UniProt P10636); assay: competition ELISA on PHF-tau captured by polyclonal anti-tau; biotinylated AT8, unlabeled competitor AT8 at 10 ug/ml
[3] = target: PHF-tau (human) (UniProt P10636); assay: sandwich ELISA: AT120 coated, tau at 80 pg/ml spiked in tau-negative CSF, detection with biotinylated BT2 + HT7
[4] = target: affinity-purified human normal tau (human) (UniProt P10636); assay: as above
[5] = target: PHF-tau (human) (UniProt P10636); assay: competition ELISA on PHF-tau captured by polyclonal anti-tau; biotinylated AT120, unlabeled competitor AT120 at 10 ug/ml
[6] = target: PHF-tau (human) (UniProt P10636); assay: sandwich ELISA: AT120 coated, tau at 40 pg/ml spiked in tau-negative CSF, detection with biotinylated BT2 + HT7
[7] = target: affinity-purified human normal tau (human) (UniProt P10636); assay: as above
[8] = target: PHF-tau (human) (UniProt P10636); assay: sandwich ELISA: AT120 coated, tau at 20 pg/ml spiked in tau-negative CSF, detection with biotinylated BT2 + HT7
[9] = target: affinity-purified human normal tau (human) (UniProt P10636); assay: as above
[10] = target: PHF-tau (human) (UniProt P10636); assay: competition ELISA on PHF-tau captured by polyclonal anti-tau; biotinylated AT120, unlabeled competitor AT8 at 10 ug/ml
[11] = target: PHF-tau (human) (UniProt P10636); assay: sandwich ELISA: AT120 coated, tau at 0 pg/ml (blank), detection with biotinylated BT2 + HT7
[12] = target: affinity-purified human normal tau (human) (UniProt P10636); assay: as above
[13] = target: PHF-tau (human) (UniProt P10636); assay: sandwich ELISA: AT120 coated, tau at 10 pg/ml spiked in tau-negative CSF, detection with biotinylated BT2 + HT7
[14] = target: affinity-purified human normal tau (human) (UniProt P10636); assay: as above
[15] = target: PHF-tau (human) (UniProt P10636); assay: sandwich ELISA: AT120 coated, tau at 160 pg/ml spiked in tau-negative CSF, detection with biotinylated BT2 + HT7
[16] = target: affinity-purified human normal tau (human) (UniProt P10636); assay: as above
[17] = target: PHF-tau (human) (UniProt P10636); assay: competition ELISA on PHF-tau captured by polyclonal anti-tau; biotinylated BT2, unlabeled competitor AT120 at 10 ug/ml
[18] = target: PHF-tau (human) (UniProt P10636); assay: competition ELISA on PHF-tau captured by polyclonal anti-tau; biotinylated BT2, unlabeled competitor BT2 at 10 ug/ml

Absorbance [1]: 0.372 absorbance
Absorbance [2]: 0.001 absorbance
Substance: monoclonal antibody AT8

absorbance (milliabsorbance units) (milliabsorbance units) [3]: 901
absorbance (milliabsorbance units) (milliabsorbance units) [4]: 970
Absorbance [5]: 0.001 absorbance
absorbance (milliabsorbance units) (milliabsorbance units) [6]: 566
absorbance (milliabsorbance units) (milliabsorbance units) [7]: 678
absorbance (milliabsorbance units) (milliabsorbance units) [8]: 257
absorbance (milliabsorbance units) (milliabsorbance units) [9]: 256
Absorbance [10]: 0.476 absorbance
absorbance (milliabsorbance units) (milliabsorbance units) [11]: 92
absorbance (milliabsorbance units) (milliabsorbance units) [12]: 87
absorbance (milliabsorbance units) (milliabsorbance units) [13]: 143
absorbance (milliabsorbance units) (milliabsorbance units) [14]: 154
absorbance (milliabsorbance units) (milliabsorbance units) [15]: 1680
absorbance (milliabsorbance units) (milliabsorbance units) [16]: 1610
Substance: monoclonal antibody AT120

Absorbance [17]: 0.543 absorbance
Absorbance [18]: 0.054 absorbance
Substance: monoclonal antibody BT2
